A protein production outcome set (Wang et al. 2014)

experiment: label from the status in PepcDB records

| Sequence | protein production |
| --- | --- |
| MAKEIKFSDSARNLLFEGVRQLHDAVKVTMGPRGRNVLIQKSYGAPSITKDGVSVAKEIELSCPVANMGAQLVKEVASKTADAAGDGTTTATVLAYSIFKEGLRNITAGANPIEVKRGMDKAAEAIINELKKASKKVGGKEEITQVATISANSDHNIGKLIADAMEKVGKDGVITVEEAKGIEDELDVVEGMQFDRGYLSPYFVTNAEKMTAQLDNAYILLTDKKISSMKDILPLLEKTMKEGKPLLIIAEDIEGEALTTLVVNKLRGVLNIAAVKAPGFGDRRKEMLKDIAILTGGQVISEELGLSLENAEVEFLGKAGRIVIDKDNTTIVDGKGHSHDVKDRVAQIKTQIASTTSDYDKEKLQERLAKLSGGVAVIKVGAASEVEMKEKKDRVDDALSATKAAVEEGIVIGGGAALIRAAQKVHLNLHDDEKVGYEIIMRAIKAPLAQIAINAGYDGGVVVNEVEKHEGHFGFNASNGKYVDMFKEGIIDPLKVERIALQNAVSVSSLLLTTEATVHEIKEEKAAPAMPDMGGMGGMGGMGGMM | failed |
| MAKELYVGHMSYEATEDDLRRLFSVAGTVTSVHIITDPETGRSKGCGYVRMLTEEEAKEAIETLDGALLRNRVITVSVARPQKQATRPAPRRGKPGPGGRPGKKRPS | failed |
| MAKFNQDLNEVLNQALNLALDLNHALCTTEHVLLVILEHESGEKIIGTLERDDYDKLKQILKDYLLQYVPLKSDPAKMPARSFVLLRMLKRMYASCFESVGVEELLILMLDHPDCYASKLMDSFGIARLYSNPALLDLDNHGIPNDINDNEEAPKNTPLKKYAKNLSALAQDNALDPVIGREEEILRVIEILGRRKKNNPLLIGEAGVGKTSIAEALALKIAQKEVPEFLQEYEVYSLDLALMVAGAKYRGDFEKRLKKTLKEIQQNGRIILFIDEIHTLLGTGSSNAGSLDAANILKPVLTDGSLKCLGATTFEEYRSVFEKDKAFNRRFSVIKVEEPSKEACYLILKKIAPLYEEHHQVRYDESVFKACVDLTSDYMHDKFLPDKAIELLDEVGSRKKISPKKGKKIGVDDVKETLALKLKIPKMRLSSDKKALLRNLEKSLKNKIFAQAEAISLVSNAIKIQHCGLSAKNKPVGSFLFVGPSGVGKTELAKELALNLNLHFERFDMSEYKEAHSVAKLIGSPSGYVGFEQGGLLVNAIKKHPHCLLLLDEIEKAHSNVYDLLLQVMDNATLSDNLGNQASFKHVILIMTSNVGSKDKDTLGFFSAKNTKYDKAVKELLTPELRSRIDAIVPFNALSLEDFERIVSVELDKLKALALEQDITLKFHKEVVKFIAQKSYQTTLGAREIKKIIHNEIKTKLSDILLLQSFKKPCKIACLLEKNQLVLKEIKRAQKVKENDF | failed |
| MAKGPLVSFQALVENARDLVYVLDAGGAIRYASPNVRQVLGYDPEGHTRETLYALDFVHPEDRTYAEAALEDLLRHPGKTREFRLRLLDAWGRVRAVRVWGRNLLEDPAVRGIIINVHDETELEAERA | failed |
| MAKILEGPAMKLFNKWGIPVPNYVVIMDPERLAQLGEANKWLRESKLVVKAHEAIGGRFKLGLVKLGLNLEEALEASREMIGRKIGTAVVRQVIVAEMLEHDEEYYVSIAGNRDGAELLLSTKGGVDIEDNWDTVKRLFIPMDETPSVERLTEVAAEAGFTGEVAERVAKIAARLILCFDNEDAQSIEINPLVIRKSDMRFAALDAVMNVDYDARFRHADWDFKPVSEIGRPYTEAEQQIMEIDARIKGSVKFVEVPGGEIALLTAGGGASVFYSDAVVARGGTIANYAEYSGDPPDWAVEALTETICRLPKIRHIIVGGAIANFTDVKATFSGIINGLRESRSKGYLQNVTIWVRRGGPNENQGLAAIRKLQDEGFDIHVYDRSMPMTDIVDLAMNS | failed |
| MAKKRESPKLIKIKDAIKLINQQVSLIGIVLEQREPKQCRNNDWICTLRIIDDTYPSPGLTVNVFSKTLEQLPQIKNHDDMILFTRIKMQTFDSGERVNAACSRWVSSFALFEGVDFVCYQCSTNFHEEEALYKSAMDDLRKVFAGCSQVIKAMQSISYRTKPCSEVFSFLREIKIGKRFDLVCRILHADEDTSAVFVWDGTDAPPASILAKRSEEDKAFSSLSVHTLLSRDVLLSFPTVGTILRVHLSSHLFYRVKPGDWVKLYHLLCEVDRGSWVIKVTSSTKVHHLAQDDRLVEKIMRIYDKRLSSKLGHISFWCFPSPPGLTETDDNCAPFVTLMDIITFPKVTCKYRCIVRVVAAYPWQVEDFCSDENRRHHQVLLTLEDSTATLEAFLCNKDAEYFWGLGFQDTETLRKKRNWLLGIRESSNFVAPRNPPWIECCILSYYTNKADPWNTRLYRIFGTRLLH | failed |
